# US7265091B2, “Methods and compositions for treating male erectile dysfunction” (The Regents of the University of California, priority 2000, dated 2007)
# Columns and labels:
# [1] = system: venogenic erectile dysfunction in castrated rats; test: Pharmacologic cavernosometry, prevention trial in castrated rats (Experiment 2); type: in vivo, rat; conditions: castrated rats treated at castration, cavernosometry 9 weeks after castration
# Source text: For the prevention trial of VEGF in rats with venogenic erectile ED, adult males were castrated and immediately treated with hormone, intracavernosal VEGF. […] Control animals received an silastic implant containing saline (n=3), an intracavernous injection of normal saline (n=3) or an […] transfection vector expressing lacZ reporter gene without the VEGF gene (AAV-LacZ, n=11).
# A 1.5 cm oblique incision was made in the lower abdominal skin extending from the midline just above the penile hilum to below the level of the glans about 1 cm lateral to the midline. The skin was sharply dissected from the anterior surface of the penis and then the penis was retracted anteriorly using a towel clamp placed around it atraumatically with the foreskin left intact. Using blunt dissection the penile base and crura were exposed. The ischiocavernosus muscles were sharply dissected off the anterior surface of the crus until the white of the tunica albuginea of the corpora cavernosa was identified. The crus was then gently cannulated using a 23 gage butterfly needle, and saline flush with a visual erectile response was used to confirm that the needle tip was truly intracavernosal. The intracavernosal injections were then administered with either VEGF protein (Calbiochem, La Jolla, Calif. #676472) at the dosage 4 ug/injection (in 0.1 cc PBS with 0.1% BSA), AAV-VEGF (10^10 viral particles in 0.1 cc NS), AAV-LacZ (10^10 viral particles in 0.1 cc NS), or 0.1 ml NS alone. The AAV-VEGF and AAV-LacZ constructs were a generous gift from Dr. Yuet W. Kan (Howard Hughes Medical Research Institute, San Francisco, Calif.).^19,20 Following injection, the needle was left in place for 5 minutes and then removed to allow the medication to diffuse throughout the cavernosal space. Immediately thereafter, pinpoint electrocautery was applied to the needle hole for hemostasis and then the wound was closed and the animal recovered as above.
# (§1) Following castration, testosterone- or saline-filled silastic implants were placed in the subcutaneous tissue of the anterior abdominal wall, as previously described.^17 Implants were prepared using sterile silastic tubing (Dow Coming, Midland, Mich. #602-265, inner diameter 0.062″) that was filled with testosterone propionate powder (Sigma Chemical, St. Louis, Mo.) with the aid of wall suction.
# To perform pharmacologic cavemosometry, both the right and left crura were separately cannulated using 23 gauge butterfly needles as described above. One cannula was flushed with sterile heparinized saline (100 U heparin/ml NS) and attached to a pressure detector for continuous intracorporal pressure (ICP) monitoring as previously described.^11 The contralateral cannula was attached to an infusion pump (Harvard Pump, Southwick, Mass. #55-2222), filled with sterile dilute heparinized saline (20 U heparin/ml NS). The baseline ICP was recorded (flaccid ICP) and then a dose of papavarine (1 mg in 0.1 cc NS) was administered through the infusion cannula. Five minutes was allowed for the papavarine to diffuse throughout the corpora and then the infusion cannula was flushed with heparinized saline and the pressure monitor cannula vented to normalize ICP after flushing. After 5 minutes more, the ICP was again recorded (ICP after papavarine) and the infusion started. An infusion rate of 0.05 ml/min was started and increased (by 0.05 ml/min every 10 seconds) until the ICP started to rise. Subsequent increases in inflow rate were made only after the ICP reached a plateau pressure. By slowly adjusting the inflow rate, an intracorporal pressure of 100 cm H2O (erectile pressure) was reached and the infusion rate required to maintain this pressure recorded (the maintenance rate). After this pressure was steady for 20 seconds, the infusion was terminated and the change in ICP over the subsequent 60 seconds was recorded (the drop rate).
# [2] = system: penile smooth muscle (alpha actin); test: Alpha-smooth muscle actin immunohistochemistry of rat penis with image analysis; type: in vivo; conditions: castrated rats
# Experimental: Frozen sections were cut at 10 microns, adhered to charged slides, air dried for 15 minutes then rehydrated with 0.05M PBS for 5 minutes. […] The serum solution was drained and then sections were incubated for 60 minutes with mouse monoclonal anti-alpha-smooth muscle actin (Sigma, St. Louis, Mo.) at a dilution of 1:4000 in PBS. […] Immunochemistry was performed in penile tissues from 4 rats randomly chosen from each subgroup.
# Cross-sectional micrographs of the rat penis at the proximal shaft were examined after immunohistochemistry for alpha actin. Alpha actin, a marker for penile smooth muscle, stains brown and can be seen surrounding the sinusoidal spaces. […] Computerized image analysis with Adobe Photoshop was used to quantify the area of immunostaining by counting the number of digitized pixels corresponding to the area of brown staining, thereby providing some numerical comparison of the quantity of smooth muscle in each specimen.
# [3] = system: dorsal nerve, intracavernous smooth muscle cells and endothelial cells; test: Transmission electron microscopy of penile tissue (Example 2); type: in vivo, rat; conditions: castrated rats, testosterone replacement
# Source text: Thick sections were cut and stained with toluidine blue to select specific areas for thin sectioning. Thin sections were cut, stained with both uranyl acetate and Reynold's Lead, and examined under the Phillips Tecnai 10 transmission electron microscope. Penile tissues from 4 randomly chosen rats in each subgroups were subjected to electron microscopic examinations.
# [4] = Serum testosterone radioimmunoassay; type: in vivo, rat; conditions: castrated rats given subcutaneous testosterone implants
# Experimental: as §1
# [5] = system: Animal Model for Neurogenic Impotence; test: Maximal intracavernous pressure on electrostimulation after bilateral cavernous nerve freezing (Example 3); type: in vivo, rat; conditions: 8 weeks after bilateral cavernous nerve freezing
# Source text: Male Sprague-Dawley rats (N=34; age, 3 months; weight, 350 to 400 gm.) were divided into two groups: sham (N=10) and experimental (N=24). The rats in the sham group underwent periprostatic dissection and identification of bilateral cavernous nerves without other manipulation; those in the experimental groups underwent bilateral cavernous nerve freezing. Several minutes after surgery, half of the experimental animals (LacZ group, N=12) received intracavernous AAV-LacZ injection, and the remainder (BDNF group, N=12) received AAV-BDNF. Half of the rats in each group were sacrificed at week 4 and the rest at week 8 for collection of penile tissue. In all animals, erectile function was assessed by electrostimulation of the cavernous nerves before sacrifice.
# Under intraperitoneal pentobarbital sodium anesthesia (50 mg./kg.), each animal was placed on a heating pad to maintain its body temperature at 37° C. […]
# At weeks 4 and 8 postoperatively, rats in each group were re-explored for direct electrostimulation of the cavernous nerves before tissue collection. […] Each cavernous nerve was stimulated and intracavernous pressures were measured and recorded with a Macintosh computer programmed with LabVIEW 4.0 software (National Instruments, Austin, Tex.). The pressure for each animal was determined by the mean of both sides.
# [6] = system: NADPH diaphorase-positive nerve fibers and neurons; test: NADPH diaphorase staining of penile tissue and major pelvic ganglia; type: in vivo, rat
# Experimental: Sections were incubated with 0.1 mM. NADPH, 0.2 mM. nitroblue tetrazolium, 0.2% Triton X-100 in 0.1 M. PO4, pH 8.0, for 60 min. at room temperature. The reaction was terminated by washing in buffer. Slides were then coverslipped with buffered glycerin as the mounting medium.^13
# The presence of NADPH diaphorase-positive nerves was evidenced as a blue stain in the major pelvic ganglia, dorsal nerves and cavernous tissue, and the staining pattern was assessed by counting the number of positive neurons in 4 random fields (magnification 400×). The percentage of darkly and lightly stained cells in the major pelvic ganglia was calculated by dividing the number of these cells by the total number of positive cells.
# [7] = system: Erectile Dysfunction Induced by Hypercholesterolemia in a Rat Model; test: Erectile function in rats fed a high cholesterol diet (Example 5); type: in vivo; conditions: 6 months cholesterol diet, 4 months after intracavernous treatment
# Experimental: Twenty-one Sprague-Dawley rats were used. All rats were fed a 2.5% cholesterol diet with added lard starting at 2 weeks of age for 6 months. The rats were divided into three groups. All groups after two months of a high cholesterol diet underwent serum evaluation of cholesterol and intracavernous injection of saline or treatment. Group 1, the control group, received intracavernous injection of saline, group 2, the VEGF group, received intracavernous injection of 4 ug of VEGF, and group 3, the AAV-BDNF group received 15 ug of BDNF. After six months of cholesterol diet and 4 months of treatment, all rats were subjected to cavernous nerve electrostimulation, cavernosometry with intracavernous papaverine injection, and infusion cavernosometry with heparinized saline to measure erectile function.
# [8] = system: major pelvic ganglia (MPG); test: Nerve fiber outgrowth from cultured major pelvic ganglia; type: cell-based, rat; set-up: Average fiber length / FIBER LENGTH (average lengths of the growing fibers): unit not given here
# Experimental: Each freshly isolated MPG was cut into 8 pieces of approximately equal size and each piece was then attached to a Matrigel-coated coverslip. The MPG pieces were cultured in serum-free medium supplemented with phosphate-buffered saline (PBS, control), 50 ng/ml of vascular endothelial growth factor (VEGF), 20 ng/ml of brain-derived neurotrophic factor (BDNF), or VEGF+BDNF. After 2 days of incubation, the ganglial tissues with their outgrowing nerve fibers were stained for the expression of NADPH diaphorase and acetylcholinesterase (AchE).
# We have been using several experimental systems to test the efficacy of combination growth factor therapies for impotence. One system employs cultured rat major pelvic ganglia (MPG) that are known to innervate all urogenital organs, including the penis. We discovered that the cultured MPG are able to sprout new nerve fibers (nerve regeneration) from the axonal ends during the first 3 days of culture, especially when treated with VEGF, BDNF, NT-3, or NT-4.
# [9] = system: cavernous nerve injury in rats; test: Maximal intracavernous pressure after bilateral cavernous nerve freezing (Example 9, VENT); type: in vivo, rat; conditions: 3 months after bilateral cavernous nerve freezing, intracavernous injection
# Experimental: (§2) Three months old Sprague-Dawley rats (N=30) were used: 6 underwent a sham operation; 24 underwent bilateral cavernous nerve freezing and then randomly divided into four groups of 6 each. The four groups of rats received intracavernous injection of one of the following: 1) phosphate buffered saline (PBS), 2) VEGF protein (4 μg), 3) adeno-associated virus (AAV)-BDNF, and 4). VEGF+AAV-BDNF. Erectile function was assessed by cavernous nerve electrostimulation 3 months later and samples of penile tissue were obtained for electron microscopy and immunohistochemical studies.
# [10] = system: blood vessels and nerve fibers in the penis; test: Penile tissue histology, nNOS staining and electron microscopy (Example 9); type: in vivo, rat; conditions: 3 months after bilateral cavernous nerve freezing
# Experimental: as §2
# [11] = 50 ng/ml VEGF, 20 ng/ml BDNF, 2 days of incubation
molecule,measurement,setting,value
"CCC(=O)O[C@H]1CC[C@H]2[C@@H]3CCC4=CC(=O)CC[C@]4(C)[C@H]3CC[C@]12C [Testosterone, testosterone propionate, reference compound]",Drop Rate in 1 min.,[1],11.7(+/−16) cm H2O
same,Flaccid ICP,[1],28.9 cm H2O
same,ICP After Papavarine,[1],87.7(+/−26) cm H2O
same,Maintenance Rate,[1],0.09(+/−0.1) ml/min
same,"quantity of penile smooth muscle, qualitative",[2],returns to normal morphology
same,nerve fibers and myelin sheath appearance,[3],appeared similar to the sham group
same,serum testosterone titer,[4],in the normal range
"BDNF: brain-derived neurotrophic factor added to MPG culture medium (Examples 7, 8) (protein, UniProt P23560 19-247, looked up) Neurotrophic factor BDNF …: APMKEANIRGQGGLAYPGVRTHGTLESVNGPKAGSRGLTSLADTFEHVIEELLDEDQKVRPNEENNKDADLYTSRVMLSSQVPLEPPLLFLLEEYKNYLDAANMSMRVRRHSDPARRGELSVCDSISEWVTAADKKTAVDMSGGTVTVLEKVPVSKGQLKQYFYETKCNPMGYTKEGCRGIDKRHWNSQCRTTQSYVRALTMDSKKRIGWRFIRIDTSCVCTLTIKRGR",Maximal intracavernous Pressure In Response to Electrostimulation,[5],61.3 ± 12.5 cm H2O
same,"NADPH Diaphorase-positive Nerve Fibers, Cavernous Tissue",[6]; 4 Weeks,45.5 ± 10.5
same,"NADPH Diaphorase-positive Nerve Fibers, Dorsal Nerve",[6]; 4 Weeks,65.5 ± 15.5
same,"NADPH Diaphorase-positive Neurons in the Major Pelvic Ganglion, % Dark Stain",[6]; 4 Weeks,62.1 ± 13.1 %
same,"NADPH Diaphorase-positive Neurons in the Major Pelvic Ganglion, % Light Stain",[6]; 4 Weeks,38.6 ± 11.8%
same,"NADPH Diaphorase-positive Neurons in the Major Pelvic Ganglion, Dark Stain",[6]; 4 Weeks,61.8 ± 23.7
same,"NADPH Diaphorase-positive Neurons in the Major Pelvic Ganglion, Light Stain",[6]; 4 Weeks,33.8 ± 9
same,"NADPH Diaphorase-positive Neurons in the Major Pelvic Ganglion, Total",[6]; 4 Weeks,95.7 ± 22.4
same,"NADPH Diaphorase-positive Nerve Fibers, Cavernous Tissue",[6]; 8 Weeks,66.1 ± 15.2
same,"NADPH Diaphorase-positive Nerve Fibers, Dorsal Nerve",[6]; 8 Weeks,86.4 ± 12.2
same,"NADPH Diaphorase-positive Neurons in the Major Pelvic Ganglion, % Dark Stain",[6]; 8 Weeks,64.3 ± 10.7 %
same,"NADPH Diaphorase-positive Neurons in the Major Pelvic Ganglion, % Light Stain",[6]; 8 Weeks,35.6 ± 10.7%
same,"NADPH Diaphorase-positive Neurons in the Major Pelvic Ganglion, Dark Stain",[6]; 8 Weeks,69.4 ± 21.1
same,"NADPH Diaphorase-positive Neurons in the Major Pelvic Ganglion, Light Stain",[6]; 8 Weeks,38.4 ± 14
same,"NADPH Diaphorase-positive Neurons in the Major Pelvic Ganglion, Total",[6]; 8 Weeks,107.8 ± 23.58
same,"sustained intracavernous pressures during the pharmacologic erection phase of cavernosometry, vs high cholesterol controls",[7],significantly higher
same,AchE staining intensity,[8]; [11],"1,102±211 IDV"
same,NADPH staining intensity,[8]; [11],"9,376±111 IDV"
same,"maximal intracavernous pressure (MICP), mean±SEM",[9],69.75±8.54 cm H2O
same,nNOS positive nerve fibers in the dorsal nerves compared to PBS group,[10],increased number
"NT-4: neurotrophin-4 (protein, UniProt P34130 81-210, looked up) Neurotrophin-4: GVSETAPASRRGELAVCDAVSGWVTDRRTAVDLRGREVEVLGEVPAAGGSPLRQYFFETRCKADNAEEGGPGAGGGGCRGVDRRHWVSECKAKQSYVRALTADAQGRVGWRWIRIDTACVCTLLSRTGRA",FIBER LENGTH (average lengths of the growing fibers),[8]; 48 hours after culturing,81
